Results published in patent publication US11112401B2, “Method for determining the cell mediated immune competence of a subject” (Oxford Immunotec Limited, priority 2016, dated 2021).

Test system: peripheral blood mononuclear cells (PBMCs)
Assay: ELISPOT screening of healthy donor samples with 23 commercially available peptide pools
Type: cell-based, human
Details: healthy donors, responsive donors/donors tested in brackets

B1: EBNA-3a Protein: Epstein barr nuclear antigen-3A as protein (number of peptides N/A) (protein, UniProt P12977 1-944, looked up)
Epstein-Barr nuclear antigen 3: MDKDRPGPPALDDNMEEEVPSTSVVQEQVSAGDWENVLIELSDSSSEKEAEDAHLEPAQKGTKRKRVDHDAGGSAPARPMLPPQPDLPGREAILRRFPLDLRTLLQAIGAAATRIDTRAIDQFFGSQISNTEMYIMYAMAIRQAIRDRRRNPASRRDQAKWRLQTLAAGWPMGYQAYSSWMYSYTDHQTTPTFVHLQATLGCTGGRRCHVTFSAGTFKLPRCTPGDRQWLYVQSSVGNIVQSCNPRYSIFFDYMAIHRSLTKIWEEVLTPDQRVSFMEFLGFLQRTDLSYIKSFVSDALGTTSIQTPWIDDNPSTETAQAWNAGFLRGRAYGIDLLRTEGEHVEGATGETREESEDTESDGDDEDLPCIVSRGGPKVKRPPIFIRRLHRLLLMRAGKRTEQGKEVLEKARGSTYGTPRPPVPKPRPEVPQSDETATSHGSAQVPEPPTIHLAAQGMAYPLHEQHGMAPCPVAQAPPTPLPPVSPGDQLPGVFSDGRVACAPVPAPAGPIVRPWEPSLTQAAGQAFAPVRPQHMPVEPVPVPTVALERPVYPKPVRPAPPKIAMQGPGETSGIRRARERWRPAPWTPNPPRSPSQMSVRDRLARLRAEAQVKQASVEVQPPQLTQVSPQQPMEGPLVPEQQMFPGAPFSQVADVVRAPGVPAMQPQYFDLPLIQPISQGAPVAPLRASMGPVPPVPATQPQYFDIPLTEPINQGASAAHFLPQQPMEGPLVPEQWMFPGAALSQSVRPGVAQSQYFDLPLTQPINHGAPAAHFLHQPPMEGPWVPEQWMFQGAPPSQGTDVVQHQLDALGYTLHGLNHPGVPVSPAVNQYHLSQAAFGLPIDEDESGEGSDTSEPCEALDLSIHGRPCPQAPEWPVQEEGGQDATEVLDLSIHGRPRPRTPEWPVQGEGGQNVTGPETRRVVVSAVVHMCQDDEFPDLQDPPDEA
  Percentage Responsive (10 spot arbitrary cut off): 13% (19/137
